Laboratory results as given in patent US20120316071A1 (published 2012).
Each block holds one binder with its values, some of them ahead of it.

Legend:
[1] = target: T1, rHuman P-Cadherin/Fc Chimera, CF (R&D Systems Cat#861-PC) (human, UniProt P22223 108-654); test: ECL Multispot (MSD), antigen spotted on plate, 10 nM Fab; blank spot of this well 214
T1 construct: Bought recombinant protein; not shown: Fc portion of the purchased chimera

[2] = target: T2, rHuman EGF R/Fc Chimera, CF (R&D Systems Cat#344-ER) (human, UniProt P00533 25-645); test: as above
T2 construct: Bought recombinant protein; also called epidermal growth factor receptor; not shown: Fc portion of the purchased chimera

[3] = target: T3, rHuman HGF R/c-MET/Fc Chimera, CF (R&D Systems Cat#358-MT/CF) (human, UniProt P08581 25-932); test: as above
T3 construct: Bought recombinant protein; also called HGF R/Fc; hepatocyte growth factor receptor; not shown: Fc portion of the purchased chimera

[4] = target: T4, rHuman CD44/Fc Chimera, CF (R&D Systems Cat#3660-CD) (human, UniProt P16070 21-220); test: as above
T4 construct: Bought recombinant protein; not shown: Fc portion of the purchased chimera

[5] = target: T5, rHuman ErbB2/Fc Chimera, CF (R&D Systems Cat#1129-ER) (human, UniProt P04626 23-652); test: as above
T5 construct: Bought recombinant protein; also called human epidermal growth factor 2 receptor; not shown: Fc portion of the purchased chimera

[6] = target: T6, rHuman IGF-1 sR, CF (R&D Systems Cat#391-GR) (human, UniProt P08069 31-932); test: as above
T6 construct: Bought recombinant soluble receptor; The column head prints only 'IGF-1'; also called insulin-like growth factor-1 soluble receptor

[7] = target: T7, rHuman Notch-1/Fc Chimera, CF (R&D Systems Cat#3647-TK) (human, UniProt P46531 19-526); test: as above
T7 construct: Bought recombinant protein; the chimera holds only a part of it; not shown: Fc portion of the purchased chimera

[8] = target: T8, rHuman Erythropoietin R/Fc Chimera, CF (R&D Systems Cat#963-ER) (human, UniProt P19235 25-250); test: as above
T8 construct: Bought recombinant protein; also called EPO R; EPO R/Fc; not shown: Fc portion of the purchased chimera
T8 sequence (looked up): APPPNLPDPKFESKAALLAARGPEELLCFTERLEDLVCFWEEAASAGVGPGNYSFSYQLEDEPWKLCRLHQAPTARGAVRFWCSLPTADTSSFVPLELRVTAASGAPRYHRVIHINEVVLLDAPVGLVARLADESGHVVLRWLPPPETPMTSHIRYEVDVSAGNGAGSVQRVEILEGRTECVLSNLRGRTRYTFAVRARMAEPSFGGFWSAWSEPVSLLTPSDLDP

[9] = target: T1, rHuman P-Cadherin/Fc Chimera, CF (R&D …); test: ECL Multispot (MSD), antigen spotted on plate, 10 nM Fab; blank spot of this well 306
[10] = target: T2, rHuman EGF R/Fc Chimera, CF (R&D …); test: as above
[11] = target: T3, rHuman HGF R/c-MET/Fc Chimera, CF (R&D …); test: as above
[12] = target: T4, rHuman CD44/Fc Chimera, CF (R&D Systems …); test: as above
[13] = target: T5, rHuman ErbB2/Fc Chimera, CF (R&D …); test: as above
[14] = target: T6, rHuman IGF-1 sR, CF (R&D Systems …); test: as above
[15] = target: T7, rHuman Notch-1/Fc Chimera, CF (R&D …); test: as above
[16] = target: T8, rHuman Erythropoietin R/Fc Chimera, CF …; test: as above
[17] = target: T9, rHuman P-Cadherin/Fc Chimera, CF (R&D Systems Cat#861-PC) (human, UniProt P22223 108-654); test: ECL Multispot (MSD), 10 nM Fab; blank 219
T9 construct: Bought reagent; Fc part of the bought chimera not given

[18] = target: T10, rHuman IGF-1 sR, CF (R&D Systems Cat#391-GR) (human, UniProt P08069 31-932); test: ECL Multispot (MSD), 10 nM Fab; blank 219
T10 construct: Bought soluble receptor; also called insulin-like growth factor-1 soluble receptor

[19] = target: T11, rHuman ErbB2/Fc Chimera, CF (R&D Systems Cat#1129-ER) (human, UniProt P04626 23-652); test: ECL Multispot (MSD), 10 nM Fab; blank 219
T11 construct: Bought reagent; also called human epidermal growth factor 2 receptor; Fc part of the bought chimera not given

[20] = target: T12, rHuman HGF R/c-MET/Fc Chimera, CF (R&D Systems Cat#358-MT/CF) (human, UniProt P08581 25-932); test: ECL Multispot (MSD), 10 nM Fab; blank 219
T12 construct: Bought reagent; also called HGF R/Fc; hepatocyte growth factor receptor; Fc part of the bought chimera not given

[21] = target: T13, rHuman CD44/Fc Chimera, CF (R&D Systems Cat#3660-CD) (human, UniProt P16070 21-220); test: ECL Multispot (MSD), 10 nM Fab; blank 219
T13 construct: Bought reagent; Fc part of the bought chimera not given

[22] = target: T14, rHuman Erythropoietin R/Fc Chimera, CF (R&D Systems Cat#963-ER) (human, UniProt P19235 25-250); test: ECL Multispot (MSD), 10 nM Fab; blank 219
T14 construct: Bought reagent; also called EPO R; EPO R/Fc; Fc part of the bought chimera not given
T14 sequence (looked up): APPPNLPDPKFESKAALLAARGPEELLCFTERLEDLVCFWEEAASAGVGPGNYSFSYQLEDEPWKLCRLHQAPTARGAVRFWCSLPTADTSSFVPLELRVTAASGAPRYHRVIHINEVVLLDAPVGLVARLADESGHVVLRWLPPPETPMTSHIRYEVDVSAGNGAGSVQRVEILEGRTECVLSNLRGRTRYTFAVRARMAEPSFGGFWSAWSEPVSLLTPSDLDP

[23] = target: T15, rHuman Notch-1/Fc Chimera, CF (R&D Systems Cat#3647-TK) (human, UniProt P46531 19-526); test: ECL Multispot (MSD), 10 nM Fab; blank 219
T15 construct: Bought reagent; Fc part of the bought chimera not given

[24] = target: T16, rHuman EGF R/Fc Chimera, CF (R&D Systems Cat#344-ER) (human, UniProt P00533 25-645); test: ECL Multispot (MSD), 10 nM Fab; blank 219
T16 construct: Bought reagent; also called epidermal growth factor receptor; Fc part of the bought chimera not given

ECL signal [1]: 152 | ECL signal [2]: 138 | ECL signal [3]: 190 | ECL signal [4]: 199 | ECL signal [5]: 202 | ECL signal [6]: 190 | ECL signal [7]: 189 | ECL signal [8]: 179 | ECL signal [9]: 422 | ECL signal [10]: 277 | ECL signal [11]: 317 | ECL signal [12]: 262 | ECL signal [13]: 378 | ECL signal [14]: 207 | ECL signal [15]: 370 | ECL signal [16]: 312
B1: Fab VH1-46_IGHD6-6*01_IGHJ1*01 S102A/S103P/S104F (APF) & L6_IGKJ1*01 (Fab, V domains shown)
VH: QVQLVQSGAEVKKPGASVKVSCKASGYTFTSYYMHWVRQAPGQGLEWMGIINPSGGSTSYAQKFQGRVTMTRDTSTSTVYMELSSLRSEDTAVYYCAREEYAPFSAEYFQHWGQGTLVTVSS
VL: not shown
notes: Tested as a Fab expressed in E. coli: the heavy chain from Plasmid A (CH1, His6 and Flag tags), the kappa light chain from Plasmid C (CL kappa); also called H:APF & L:wt; APF triple mutant

ECL signal [17]: 308 | ECL signal [18]: 312 | ECL signal [19]: 189 | ECL signal [20]: 212 | ECL signal [21]: 192 | ECL signal [22]: 204 | ECL signal [23]: 156 | ECL signal [24]: 226
B2: Fab VH1-46_IGHD6-6*01_IGHJ1*01 S102A/S103P/S104F A106E & L6_IGKJ1*01 (Fab, V domains shown)
VH: QVQLVQSGAEVKKPGASVKVSCKASGYTFTSYYMHWVRQAPGQGLEWMGIINPSGGSTSYAQKFQGRVTMTRDTSTSTVYMELSSLRSEDTAVYYCAREEYAPFSEEYFQHWGQGTLVTVSS
VL: not shown
notes: Tested as a Fab (CH1 with His6/Flag tags, kappa CL); also called APF A106E
